These results are taken from patent US20140227287A1 (Astellas, published 2014).

As a reminder, the Kd is the constant that tells how readily two partners part at equilibrium. Lower therefore signals tighter binding. As usually defined, the IC50 is the concentration needed to halve the response being measured. Read a high IC50 as lower potency.

Experiment [1] concerns the target T1, mouse βNGF (R&D Systems, Inc.) (mouse, UniProt P01139 122-241). Kind of experiment: cell-based or functional assay.
In experiment [2] the target is T2, human βNGF (R&D Systems, Inc.) (human, UniProt P01138 122-241). The experiment can be described thus: cell-based or functional assay.
For experiment [3], the target named is T1, mouse βNGF (R&D Systems, Inc.). The experiment can be described thus: method of Example 3 with biotin-labeled mouse βNGF (Example 4).
The target of experiment [4] is T2, human βNGF (R&D Systems, Inc.). Kind of experiment: NGF-trkA binding inhibition ELISA and cell assays (Examples 3, 6, 7). The procedure:
(§1) Inhibitory activity was measured by the following method. The human trkA (R&D Systems, Inc.) was added to a white Maxisorp 384 plate (Nunc) at 60 ng/well and immobilized by being incubated overnight at 4° C. The next day, the plate was washed once with the TBST wash solution, a blocking agent (TBST containing 20% Blocking One (Nacalai Tesque, Inc.)) was then added thereto, and the plate was left to stand at room temperature for an hour. Subsequently, a mixture obtained by mixing the biotin-labeled human βNGF (0.2 μg/ml) prepared as above with the antibody prepared in Example 2 was added to the trkA-immobilized plate having undergone blocking. […] After an hour of incubation at room temperature, the plate was washed three times with the TBST wash solution and then supplemented with APU4 (BioFx) which is a reagent detecting chemiluminescence, and the amount of chemiluminescence was measured by an EnVision counter (PerkinElmer Co., Ltd.).
(§2) The inhibitory activity was measured by the following method. […] By operating the FLIPR, a mixed solution of the antibody obtained in Example 2 and βNGF was added to the plate at 50 μl/well (final NGF concentration of 100 ng/ml), and the change in intracellular Ca²⁺ concentration was measured.
For orientation: An ELISA detects its analyte on a solid surface through an enzyme-linked reagent.

For experiment [5] the target is unchanged. Kind of experiment: Fab fragments evaluated by the tests of Examples 3, 6 and 7. How it is done:
as §1, §2

The target is the same in experiment [6]. The experiment can be described thus: isothermal titration calorimetry, human βNGF titrated into antibody in PBS, single site binding model. (Isothermal titration calorimetry measures the heat released or taken up as one component is titrated into another.)
Experiment [7] shares this target. Kind of experiment: competition ELISA: inhibition of biotin-labeled human βNGF binding to immobilized human trkA (Example 3).

B1: PEGylated 1-15(N52D)-Fab′ (Fab, V domains shown)
VH: QVQLQQWGAGLLKPSETLSLTCAVYGGSFSGYYWSWVRQPPGKGLEWIGEIDHSGSTNNNPSLKSRVTISVGTSKNQFSLKLSSVTAADTAVYYCSRDGGPESGMGAFDIWGQGTMVTVSS
VL: not shown
modifications: 40 kDa PEG (maleimide, SUNBRIGHT GL2-400MA) on Cys of the carboxyl terminal (C226 based on EU index; Cys at position 230 of SEQ ID NO:10)
Regarding B1, in experiment [1], the “IC50, inhibition of NGF-induced intracellular Ca2+ increase (method of Example 6)” value amounted to 0.069 µg/mL and the “neutralizing activity relative to tanezumab (method of Example 6)” value is around 3.3 times.

B2: 1-15(N52D-A)-Fab′-5kPEG (Fab, V domains shown)
VH: QVQLQQWGAGLLKPSETLSLTCAVYGGSFSGYYWSWVRQPPGKGLEWIGEIDHSGSTNNNPSLKSRVTISVGTSKNQFSLKLSSVTAADTAVYYCSRDGGPESGMGAFDIWGQGTMVTVSS
VL: not shown
modifications: 5 kDa PEG conjugated by a procedure similar to Example 13 (hinge Cys)
As for B2, the “IC50, inhibition of NGF-induced intracellular Ca2+ increase (method of Example 6, final NGF concentration 50 ng/ml)” value in experiment [2] came to 0.03 µg/mL.

B3: antibody 1-15 (chimeric antibody) (antibody, V domains shown)
VH: QVQLQQWGAGLLKPSETLSLTCAVYGGSFSGYYWSWVRQPPGKGLEWIGEINHSGSTNNNPSLKSRVTISVGTSKNQFSLKLSSVTAADTAVYYCSRDGGPESGMGAFDIWGQGTMVTVSS
VL: not shown
notes: Heavy chain variable region has an N-glycosylation motif at N52 (Kabat)
With B3, the binding result in experiment [3] and in experiment [4] was “binds” in each case.

B4: 1-15(N52D-A)-Fab′-10kPEG (Fab, V domains shown)
VH: QVQLQQWGAGLLKPSETLSLTCAVYGGSFSGYYWSWVRQPPGKGLEWIGEIDHSGSTNNNPSLKSRVTISVGTSKNQFSLKLSSVTAADTAVYYCSRDGGPESGMGAFDIWGQGTMVTVSS
VL: not shown
modifications: 10 kDa PEG conjugated by a procedure similar to Example 13 (hinge Cys)
Regarding B4, the “IC50, inhibition of NGF-induced intracellular Ca2+ increase (method of Example 6, final NGF concentration 50 ng/ml)” value in experiment [2] amounted to 0.028 µg/mL.

B5: Fab fragment of antibody 1-15 (papain digest) (Fab, V domains shown)
VH: QVQLQQWGAGLLKPSETLSLTCAVYGGSFSGYYWSWVRQPPGKGLEWIGEINHSGSTNNNPSLKSRVTISVGTSKNQFSLKLSSVTAADTAVYYCSRDGGPESGMGAFDIWGQGTMVTVSS
VL: not shown
notes: also called monovalent antibody fragment of 1-15
Take B5: the binding result in experiment [5] is reported as “binds”.

B6: tanezumab (antibody, V domains shown)
VH: QVQLQESGPGLVKPSETLSLTCTVSGFSLIGYDLNWIRQPPGKGLEWIGIIWGDGTTDYNSAVKSRVTISKDTSKNQFSLKLSSVTAADTAVYYCARGGYWYATSYYFDYWGQGTLVTVSS
VL: DIQMTQSPSSLSASVGDRVTITCRASQSISNNLNWYQQKPGKAPKLLIYYTSRFHSGVPSRFSGSGSGTDFTFTISSLQPEDIATYYCQQEHTLPYTFGQGTKLEIKR
On to B6, for which, in experiment [6], the “-TΔS” value was -5.73 kcal/mol, the Kd is 20.4 nM, the “ΔG” value was -10.5 kcal/mol and the “ΔH” value was -4.76 kcal/mol. The 50% inhibitory concentration (IC50) in experiment [7] stood at 0.41 µg/mL. Moreover, in experiment [2], the “IC50, inhibition of NGF-induced intracellular Ca2+ increase (method of Example 6)” value was 0.17 µg/mL. Also, in experiment [1], the “IC50, inhibition of NGF-induced intracellular Ca2+ increase (method of Example 6)” value came to 0.23 µg/mL.
